{"source": "paper PMC3338484", "tested_on": "T1, Nc1nc2c(c(=O)[nH]1)N1CN(c3ccc(C(=O)NC(CCC(=O)O)C(=O)O)cc3)CC1CN2", "T1 construct": "hexa-histidine tag with TEV protease site (N, cleaved yes); made in house; host or cells: E. coli BL21 (DE3)", "assay": "FolD enzyme assay (absorbance at 350 nm), IC50 determination", "assay_type": "biochemical, Pseudomonas aeruginosa", "settings": "other: 1 nM PaFolD, end-point assay; other substrate saturating; mean ± SD (n = 4); pH 7.9", "experimental": "Enzyme activity was assayed by measuring the absorbance at 350 nm of the intermediate product in the reaction, N ^5,N ^10-methenyl-THF, following acidification of the reaction and consequent reconversion of the final product formyl-THF to the intermediate. Following optimization of the assay buffer and determination of the enzyme linearity, assays were carried out at room temperature in a 50 µL reaction volume containing 25 mM bicine, pH 7.9, 1 mM dithiothreitol, 0.05% CHAPS, 0.2 mg mL^−1 BSA, 1 nM recombinant FolD, […] NADP^+ and 35 µM N ^5,N ^10-methylene-THF. Michaelis constants for the two substrates (NADP^+ and N ^5,N ^10-methylene-THF) were determined in an end-point assay, using these buffer and enzyme conditions.\nThe HTS was performed with a compound collection of 79,029 diverse structures based around 4000 chemical scaffolds. All compounds were dissolved in 100% DMSO to a concentration of 3 mM. Single point inhibition assays were carried out at room temperature in clear, flat bottom, polystyrene, 384-well plates (Matrix). Each assay was performed in a 50 µL reaction volume as described above. […] The FolD assay was run at room temperature for 20 min and the signal was allowed to develop for 10 min before the absorbance of each well was read at 350 nm using an EnVision multilabel plate reader (PerkinElmer Life Sciences). […]", "data": [{"substance": "PaFolD (Pseudomonas aeruginosa PAO1)", "values": [{"measurement": "Km", "result": "26 ± 4", "unit": "µM"}]}]}
